Measurements reported in patent US20190106510A1 (CELLDEX THERAPEUTICS, published 2019).

T1: murine KIT (murine, UniProt P05532 25-527, limits assumed)
T1 sequence (looked up): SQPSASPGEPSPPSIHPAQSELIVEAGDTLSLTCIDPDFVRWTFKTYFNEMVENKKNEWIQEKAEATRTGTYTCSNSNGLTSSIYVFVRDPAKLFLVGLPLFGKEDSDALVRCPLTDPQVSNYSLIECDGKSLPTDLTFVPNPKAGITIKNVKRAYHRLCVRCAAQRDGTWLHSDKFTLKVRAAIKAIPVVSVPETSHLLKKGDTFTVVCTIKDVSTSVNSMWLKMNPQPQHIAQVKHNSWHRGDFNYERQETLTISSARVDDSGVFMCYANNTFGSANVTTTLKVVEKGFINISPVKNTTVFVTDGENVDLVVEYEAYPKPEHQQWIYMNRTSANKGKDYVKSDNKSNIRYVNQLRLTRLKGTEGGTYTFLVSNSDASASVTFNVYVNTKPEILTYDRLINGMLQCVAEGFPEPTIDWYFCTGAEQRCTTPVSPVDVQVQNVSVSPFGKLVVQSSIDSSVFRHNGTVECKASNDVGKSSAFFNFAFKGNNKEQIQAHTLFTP


Key:
[1] = target: T2, full-length, wild-type human KIT expressed on CHO cells (human, UniProt P10721 26-976); test: cell-based or functional assay
[2] = target: T2, full-length, wild-type human KIT …; test: cell-based or functional assay; remark: listed apart in the source
murine KIT = target: T1, murine KIT; test: additional binding assays (format not described)
[3] = target: T2, full-length, wild-type human KIT …; test: flow cytometry on CHO cells expressing full-length wild-type human KIT (FIG. 6)
Description: Briefly, parental CHO cells and CHO/KIT-WT cells were washed and incubated with 0.01 nM, 0.1 nM, 1 nM or 10 nM of a chimeric (human-mouse) 37M antibody, antibody Hum17, Hum8, Hum4, or Hum10, a negative control isotype IgG antibody, or a commercial anti-KIT antibody as a positive control. The samples were processed for flow cytometry analysis. More specifically, cells were removed from the culture flasks using EDTA, and washed with PBS. Then, the cells were resuspended in media and counted. Each sample containing approximately 200,000 to 250,000 cells was spun, the media was removed, and the cells were resuspended in FC buffer (1% BSA, 0.01% sodium azide in 1×PBS) for the blocking step. The cells were incubated in FC buffer for 1 hour on ice. Then, primary antibody (e.g., a chimeric (human-mouse) 37M antibody, Hum17, Hum8, Hum4, Hum10, positive control anti-KIT antibody, or negative control antibody) was added to the cells in FC buffer as described above. The samples were mixed and incubated on ice for 1 hour, followed by washing the cells with 0.5-1 mL FC buffer. The FC buffer was removed by spinning the cells at 1200 rpm for 3 minutes at 4° C., decanting the liquid. The cell pellets were resuspended in 200 μL FC buffer, and secondary antibody (DyLight 488 AffiniPure Goat Anti-Mouse IgG Jackson Laboratories) was added to the cells at a 1:1000 to 1:2000 dilution. The samples were mixed and incubated on ice for 1 hour, and then washed as described above. The samples were run on a fluorescence activated cell sorter (FACS) machine (Accuri FlowCytometer C6). Samples were analyzed by following channel FLA-1 for DyLight-conjugated samples.

recombinant KIT D4/D5 [4] = target: T3, recombinant KIT D4/D5 (human, UniProt P10721 26-519); test: solid phase ELISA, plate-adsorbed recombinant D4/D5 region of human KIT (FIG. 5)
T3 construct: also called recombinant c-Kit Ig-like domains D4/D5; recombinant polypeptide of the D4/D5 region of human KIT
Description: Recombinant antigen corresponding to the D4/D5 region of the KIT extracellular domain (see FIG. 2) was absorbed onto 96-well microtiter plates. In particular, recombinant antigen (5 μg) were diluted into 10 mL of borate buffer, and 100 μL of the antigen solution were added to each well of a 96 well plate and were incubated at 4° C. overnight.
ELISA: Following one rinse with TBS-T, blocking buffer (200 μL) was added to each well of the plate with the adsorbed antigen and was incubate at room temperature for one hour. Then, the blocking buffer was removed, and the serially diluted solutions of test antibodies and controls were added to the plate in a volume of 50 μL and incubated at room temperature for one hour. The antibody solutions were removed, and the plate was washed three times with 100 μL of wash buffer on a plate washer. After the last wash, the plate was blotted dry. Secondary antibody solution was diluted 1:8000 and was added to each well in a volume of 100 μL and allowed to incubate for one hour at room temperature. The diluted secondary antibody solution was removed, and the plate was washed three times with 100 μL of wash buffer on a plate washer. Then, freshly mixed TMB substrate solution was added to each well in a volume of 100 μL and was allowed to incubate at room temperature for 30 minutes. Subsequently, 100 μL of 2N H₂SO₄ were added to each well and immediately read on the plate reader. An irrelevant antibody served as the negative control, and an anti-KIT antibody against the D4 and/or D5 domain of the extracellular region of KIT served as the positive control. OD values for each sample were obtained at a wavelength of 450 nm.
Results were analyzed using Graph Pad Prism and Excel to obtain the concentration of antibodies at 50% binding to antigen.

recombinant KIT D4/D5 [5] = target: T3, recombinant KIT D4/D5; test: direct binding ELISA, plate-coated recombinant KIT D4/D5; assay #3 (purified)
Description: (§1) The binding affinity of the anti-KIT antibodies to the target antigen KIT Ig-like domains D4/D5 was assessed by direct binding ELISA. […] Bound antibody was detected with anti-human Ig-HRP followed by detection using TMB substrate.

recombinant KIT D4/D5 [6] = target: T3, recombinant KIT D4/D5; test: direct binding ELISA, plate-coated recombinant KIT D4/D5; assay #4 (purified)
Description: as §1

recombinant KIT D4/D5 [7] = target: T3, recombinant KIT D4/D5; test: direct binding ELISA, plate-coated recombinant KIT D4/D5; assay #1 (supernatant)
Description: as §1

recombinant KIT D4/D5 [8] = target: T3, recombinant KIT D4/D5; test: direct binding ELISA, plate-coated recombinant KIT D4/D5; assay #2 (supernatant)
Description: as §1

T2 sequence (P10721 other isoform, or with tags, fused parts or gaps limits assumed): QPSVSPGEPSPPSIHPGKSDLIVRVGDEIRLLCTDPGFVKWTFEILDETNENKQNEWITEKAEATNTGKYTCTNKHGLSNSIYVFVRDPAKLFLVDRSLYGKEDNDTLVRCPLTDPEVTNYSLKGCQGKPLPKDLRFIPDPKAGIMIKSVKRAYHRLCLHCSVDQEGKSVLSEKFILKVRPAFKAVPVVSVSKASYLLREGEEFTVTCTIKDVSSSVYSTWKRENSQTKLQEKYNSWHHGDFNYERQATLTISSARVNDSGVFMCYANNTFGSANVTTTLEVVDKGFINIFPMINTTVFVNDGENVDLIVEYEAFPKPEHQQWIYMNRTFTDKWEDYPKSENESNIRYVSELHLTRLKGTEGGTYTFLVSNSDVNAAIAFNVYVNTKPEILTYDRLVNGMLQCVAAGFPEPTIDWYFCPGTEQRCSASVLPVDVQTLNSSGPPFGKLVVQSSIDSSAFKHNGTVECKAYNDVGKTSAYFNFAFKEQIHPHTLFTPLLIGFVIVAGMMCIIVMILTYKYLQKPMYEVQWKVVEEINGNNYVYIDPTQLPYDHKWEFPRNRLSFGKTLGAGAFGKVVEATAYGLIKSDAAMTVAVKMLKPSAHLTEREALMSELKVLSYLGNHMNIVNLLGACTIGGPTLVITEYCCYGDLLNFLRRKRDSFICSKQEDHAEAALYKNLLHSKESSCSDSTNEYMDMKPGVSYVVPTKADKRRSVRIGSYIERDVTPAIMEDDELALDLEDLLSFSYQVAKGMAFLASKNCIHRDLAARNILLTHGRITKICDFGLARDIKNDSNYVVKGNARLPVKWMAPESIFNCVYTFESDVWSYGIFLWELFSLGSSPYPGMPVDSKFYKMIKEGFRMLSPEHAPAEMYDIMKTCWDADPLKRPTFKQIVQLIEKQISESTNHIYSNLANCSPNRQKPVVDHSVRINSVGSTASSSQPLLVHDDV
T3 sequence (P10721 other isoform, or with tags, fused parts or gaps limits assumed): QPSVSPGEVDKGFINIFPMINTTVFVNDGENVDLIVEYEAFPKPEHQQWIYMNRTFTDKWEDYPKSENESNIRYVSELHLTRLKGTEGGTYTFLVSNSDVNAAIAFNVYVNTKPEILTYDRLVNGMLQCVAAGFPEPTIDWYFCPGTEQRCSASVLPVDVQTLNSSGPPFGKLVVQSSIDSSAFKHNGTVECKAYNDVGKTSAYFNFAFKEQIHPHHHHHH

Row | Binder | 50% inhibition concentration (IC50), SCF-induced KIT tyrosine phosphorylation, cell-based phospho-KIT ELISA [1] [pM] | Relative blocking activity, assay #3 (96-well): IC50 of inhibition of SCF-induced KIT phosphorylation, normalized to chimeric 37M antibody [2] | Relative blocking activity, assay #4 (96-well): IC50 of inhibition of SCF-induced KIT phosphorylation, normalized to chimeric 37M antibody [2] | binding result (murine KIT) | EC50 [3] [nM] | EC50 (recombinant KIT D4/D5 [4]) [pM] | Relative binding activity (recombinant KIT D4/D5 [5]) | Relative binding activity (recombinant KIT D4/D5 [6]) | Relative binding activity (recombinant KIT D4/D5 [7]) | Relative binding activity (recombinant KIT D4/D5 [8]) | Relative blocking activity, assay #1 (24-well): IC50 of inhibition of SCF-induced KIT phosphorylation, normalized to chimeric 37M antibody [2] | Relative blocking activity, assay #2 (24-well): IC50 of inhibition of SCF-induced KIT phosphorylation, normalized to chimeric 37M antibody [2]
1 | Hum8 (antibody, V domains shown) VH: QVQLVQSGAEVKKPGASVKLSCKASGYTFTDYYINWVRQAPGKGLEWIARIYPGSGNTYYNEKFKGRATLTADKSTSTAYMQLSSLRSEDTAVYFCARGVYYFDYWGQGTTVTVSS VL: DIVMTQSPSSLSASVGDRVTITCKASQNVRTNVAWYQQKPGKAPKALIYSASYRYSGVPDRFTGSGSGTDFTLTISSLQPEDFADYFCQQYNSYPRTFGGGTKVEIK | ~542 | 1.01 relative to chimeric 37M antibody | 1.12 relative to chimeric 37M antibody | no binding | ~0.083 | ~11 | 0.89 relative to chimeric antibody 37C (normalized EC50) | 0.75 relative to chimeric antibody 37C (normalized EC50) | 1.02 relative to chimeric antibody 37C (normalized EC50) | 0.62 relative to chimeric antibody 37C (normalized EC50) |  | 
2 | Hum19 (antibody, V domains shown) VH: QVQLVQSGAEVKKPGASVKVSCKASGYTFTDYYINWVRQAPGKGLEWIARIYPGSGNTYYNEKFKGRATITADKSTSTAYMELSSLRSEDTAVYFCARGVYYFDYWGQGTTVTVSS VL: DIVMTQSPSSLSASVGDRVTITCKASQNVRTNVAWYQQKPGKAPKSLIYSASYRYSGVPDRFSGSGSGTDFTLTISSLQPEDFATYYCQQYNSYPRTFGGGTKVEIK |  | 0.98 relative to chimeric 37M antibody | 1.4 relative to chimeric 37M antibody |  |  |  | 0.95 relative to chimeric antibody 37C (normalized EC50) | 0.85 relative to chimeric antibody 37C (normalized EC50) | 1.11 relative to chimeric antibody 37C (normalized EC50) | 1.05 relative to chimeric antibody 37C (normalized EC50) | 1.09 relative to chimeric 37M antibody | 
3 | Hum17 (antibody, V domains shown) VH: QVQLVQSGAEVKKPGASVKLSCKASGYTFTDYYINWVKQAPGKGLEWIARIYPGSGNTYYNEKFKGRATLTAEKSTSTAYMQLSSLRSEDTAVYFCARGVYYFDYWGQGTTVTVSS VL: DIVMTQSPSSLSASVGDRVTITCKASQNVRTNVAWYQQKPGKAPKSLIYSASYRYSGVPDRFSGSGSGTDFTLTISSLQPEDFATYYCQQYNSYPRTFGGGTKVEIK | ~510 |  | 1.07 relative to chimeric 37M antibody | no binding | ~0.139 | ~6.6 | 0.98 relative to chimeric antibody 37C (normalized EC50) | 0.72 relative to chimeric antibody 37C (normalized EC50) | 1.17 relative to chimeric antibody 37C (normalized EC50) | 0.76 relative to chimeric antibody 37C (normalized EC50) |  | 1.39 relative to chimeric 37M antibody
4 | Hum18 (antibody, V domains shown) VH: QVQLVQSGAEVKKPGASVKLSCKASGYTFTDYYINWVRQAPGKGLEWIARIYPGSGNTYYNEKFKGRATLTADKSTSTAYMQLSSLRSEDTAVYFCARGVYYFDYWGQGTTVTVSS VL: DIVMTQSPSSLSASVGDRVTITCKASQNVRTNVAWYQQKPGKAPKSLIYSASYRYSGVPDRFSGSGSGTDFTLTISSLQPEDFATYYCQQYNSYPRTFGGGTKVEIK |  |  |  |  |  |  | 0.99 relative to chimeric antibody 37C (normalized EC50) |  | 1.22 relative to chimeric antibody 37C (normalized EC50) | 0.79 relative to chimeric antibody 37C (normalized EC50) |  | 1.22 relative to chimeric 37M antibody
5 | Hum4 (antibody, V domains shown) VH: QVQLVQSGAEVKKPGASVKVSCKASGYTFTDYYINWVRQAPGKGLEWIARIYPGSGNTYYNEKFKGRATITADKSTSTAYMELSSLRSEDTAVYFCARGVYYFDYWGQGTTVTVSS VL: DIVMTQSPSFLSASVGDRVTITCKASQNVRTNVAWYQQKPGKAPKALIYSASYRYSGVPDRFTGSGSGTDFTLTISSLQSEDFADYFCQQYNSYPRTFGGGTKVEIK | ~470 |  | 0.86 relative to chimeric 37M antibody | no binding | ~0.106 | ~7.5 | 1.07 relative to chimeric antibody 37C (normalized EC50) | 0.83 relative to chimeric antibody 37C (normalized EC50) |  | 0.91 relative to chimeric antibody 37C (normalized EC50) |  | 1.2 relative to chimeric 37M antibody
6 | Hum10 (antibody, V domains shown) VH: QVQLVQSGAEVKKPGASVKVSCKASGYTFTDYYINWVRQAPGKGLEWIARIYPGSGNTYYNEKFKGRVTITADKSTSTAYMELSSLRSEDTAVYFCARGVYYFDYWGQGTTVTVSS VL: DIVMTQSPSSLSASVGDRVTITCKASQNVRTNVAWYQQKPGKAPKALIYSASYRYSGVPDRFTGSGSGTDFTLTISSLQPEDFADYFCQQYNSYPRTFGGGTKVEIK | ~510 |  | 0.86 relative to chimeric 37M antibody | no binding | ~0.132 | ~23 | 0.87 relative to chimeric antibody 37C (normalized EC50) | 0.72 relative to chimeric antibody 37C (normalized EC50) | 1.1 relative to chimeric antibody 37C (normalized EC50) | 0.88 relative to chimeric antibody 37C (normalized EC50) |  | 0.82 relative to chimeric 37M antibody
